Experimental findings from paper PMC12803513 are described below.

The target in the assay is microtubules (polymers of alpha- and beta-tubulin) of Drosophila head lysate (D. melanogaster (endogenous in adult fly heads)) (UniProt P06603). The assay is described as follows: co-sedimentation; in vivo microtubule-binding assay: 50 wild-type fly heads homogenised in Buffer-C+ (50 mM HEPES pH 7.1, 1.0 mM MgCl2, 1.0 mM EGTA, protease and phosphatase inhibitors) with 20 uM Taxol; 100,000 x g for 30 min through a 50% sucrose cushion; pellet blotted with anti-Pfdn5 and anti-ace-tubulin.
Chain of UniProt P06603 (P06603 whole entry, chain 1 of 2): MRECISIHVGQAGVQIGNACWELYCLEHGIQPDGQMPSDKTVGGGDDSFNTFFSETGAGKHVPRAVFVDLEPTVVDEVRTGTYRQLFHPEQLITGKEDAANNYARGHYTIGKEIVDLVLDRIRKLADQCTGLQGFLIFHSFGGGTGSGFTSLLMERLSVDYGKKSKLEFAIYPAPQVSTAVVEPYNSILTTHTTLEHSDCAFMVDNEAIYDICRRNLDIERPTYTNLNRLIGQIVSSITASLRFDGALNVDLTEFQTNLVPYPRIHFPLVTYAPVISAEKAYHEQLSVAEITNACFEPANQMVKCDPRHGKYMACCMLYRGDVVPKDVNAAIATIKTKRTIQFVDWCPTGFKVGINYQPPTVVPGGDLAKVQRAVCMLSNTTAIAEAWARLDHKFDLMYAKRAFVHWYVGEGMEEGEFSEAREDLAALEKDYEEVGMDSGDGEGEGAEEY
Chain of UniProt P06603 (Q24560 whole entry, chain 2 of 2, further chain): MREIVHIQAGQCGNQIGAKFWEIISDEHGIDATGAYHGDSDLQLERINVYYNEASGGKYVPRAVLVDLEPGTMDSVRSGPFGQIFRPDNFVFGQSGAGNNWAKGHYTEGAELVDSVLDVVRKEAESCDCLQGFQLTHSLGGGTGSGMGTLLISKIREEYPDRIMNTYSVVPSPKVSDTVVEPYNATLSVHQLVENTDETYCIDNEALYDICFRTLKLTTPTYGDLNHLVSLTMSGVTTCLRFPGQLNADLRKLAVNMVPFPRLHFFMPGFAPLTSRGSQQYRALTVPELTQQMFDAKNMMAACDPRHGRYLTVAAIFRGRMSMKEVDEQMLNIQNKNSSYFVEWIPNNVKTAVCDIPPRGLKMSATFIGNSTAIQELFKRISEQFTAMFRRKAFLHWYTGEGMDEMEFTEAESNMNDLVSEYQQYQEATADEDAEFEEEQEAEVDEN

B1: Prefoldin 5 (natural protein)
chain: MAATPSAPAKSEMIDLTKLSPEQLIQIKQEFEQEITNVQDSLSTLHGCQAKYAGSKEALGTFQPNWENRQILVPLTSSMYVPGRVKDLNRFVIDIGTGYYIEKDLEGSKDYFKRRVEYVQEQIEKIEKIHLQKTRFYNSVMSVLEMKQAAAAKLQSQQQSQPAVTQSS
In turn, B1 came in with a percentage of Pfdn5 in the pellet fraction of 36.7%.
